Where no end group is shown, it is not given here.
T1: human MASP-1 catalytic fragment CCP1-CCP2-SP (human, UniProt P48740 298-699, limits assumed)
T1 construct: domain: CCP1-CCP2-SP
T1 sequence (looked up): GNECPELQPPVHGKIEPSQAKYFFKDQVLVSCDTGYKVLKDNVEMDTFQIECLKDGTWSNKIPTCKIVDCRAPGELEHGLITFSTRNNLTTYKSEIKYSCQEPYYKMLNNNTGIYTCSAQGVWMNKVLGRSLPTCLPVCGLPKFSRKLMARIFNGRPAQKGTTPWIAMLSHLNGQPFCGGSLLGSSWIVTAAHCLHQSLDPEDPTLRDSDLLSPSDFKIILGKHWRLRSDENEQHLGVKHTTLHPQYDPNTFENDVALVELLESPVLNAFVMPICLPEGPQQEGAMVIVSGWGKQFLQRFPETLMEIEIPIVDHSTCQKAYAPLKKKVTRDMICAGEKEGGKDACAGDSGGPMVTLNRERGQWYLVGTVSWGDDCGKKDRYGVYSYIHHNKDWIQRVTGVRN

T2: human MASP-3 catalytic fragment CCP1-CCP2-SP (human, UniProt P48740-2 298-728, limits assumed)
T2 construct: domain: CCP1-CCP2-SP
T2 sequence (looked up): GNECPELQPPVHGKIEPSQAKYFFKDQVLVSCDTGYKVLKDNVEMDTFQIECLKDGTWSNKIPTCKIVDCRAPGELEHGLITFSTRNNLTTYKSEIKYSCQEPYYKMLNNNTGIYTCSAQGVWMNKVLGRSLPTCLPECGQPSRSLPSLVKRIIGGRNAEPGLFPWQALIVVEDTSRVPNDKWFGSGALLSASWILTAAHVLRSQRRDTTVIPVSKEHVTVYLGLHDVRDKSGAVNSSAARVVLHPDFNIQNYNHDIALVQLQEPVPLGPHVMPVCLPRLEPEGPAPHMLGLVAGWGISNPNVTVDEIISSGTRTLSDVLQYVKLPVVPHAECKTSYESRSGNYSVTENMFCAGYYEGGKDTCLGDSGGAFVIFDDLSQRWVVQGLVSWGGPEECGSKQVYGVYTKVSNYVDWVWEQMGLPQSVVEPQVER

T3: TFPI-D2, second Kunitz domain (residues 121-178) of human Tissue Factor Pathway Inhibitor-1 (human, UniProt P10646 121-178)
T3 construct: Recombinant, made as m1; also called parental TFPI-D2; human TFPI-D2
T3 sequence: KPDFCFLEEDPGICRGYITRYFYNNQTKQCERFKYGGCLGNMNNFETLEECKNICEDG

B1: rat MASP-2 catalytic fragment CCP1-CCP2-SP (enzyme)
chain: MTQPCPDPTAPPNGHISPVQATYVLKDSFSVFCKTGFELLQGSVPLKSFTAVCQKDGSWDRPIPECSIIDCGPPDDLPNGHVDYITGPEVTTYKAVIQYSCEETFYTMSSNGKYVCEADGFWTSSKGEKSLPVCKPVCGLSTHTSGGRIIGGQPAKPGDFPWQVLLLGETTAAGALIHDDWVLTAAHAVYGKTEAMSSLDIRMGILKRLSPHYTQAWPEAVFIHEGYTHGAGFDNDIALIKLKNKVTINRNIMPICLPRKEAASLMKTDFVGTVAGWGLTQKGFLARNLMFVDIPIVDHQKCATAYTKQPYPGAKVTVNMLCAGLDAGGKDSCRGDSGGALVFLDNETQRWFVGGIVSWGSINCGGSEQYGVYTKVTNYIPWIENIINNF
notes: Mw 42309 Da; also called rat MASP-2cf; MASP2cf

Assays:
[1] = target: B1; experiment: enzyme inhibition, Z-L-Lys-SBzl/DTNB, tight-binding fit, catalytic fragment CCP1-CCP2-SP
Experimental: (§1) For determining the KI of the inhibitors on MASP enzymes we used catalytic enzyme fragments containing the three C-terminal domains: CCP1-CCP2-SP. The synthetic substrate used in the measurements was Z-L-Lys-SBzl hydrochloride (Sigma, C3647), from which a 10 mM stock solution was prepared. The reactions were performed in a volume of 0.2 ml at room temperature in a buffer consisting of 20 mM HEPES; 145 mM NaCl; 5 mM CaCl₂; 0.05% Triton-X100. The substrate cleaved by the enzyme entered into a reaction with the 5,5′-Dithiobis(2-nitrobenzoic acid) (DTNB, Ellman's reagent, Sigma—D8130) auxiliary substrate present in the solution in 2-fold excess to Z-L-Lys-SBzl. The release of the chromophore group created in this way was monitored via the change of absorbance at 410 nm using a BioTek Synergy H4 multimode microplate reader.
(§2) A dilution sequence was prepared from the individual inhibitors, the enzyme was added to it, and it was incubated for 2 hours at room temperature. The samples were transferred on a 96-well microtiter plate (Nunc 269620). The reactions were started by adding the mixture of the substrate and the auxiliary substrate to the samples. The concentration of the substrate and the length of the measuring period were chosen so that under the given conditions the enzyme should consume less than 10% of the substrate. In this case we used 250 μM Z-L-Lys-SBzl and 500 μM DTNB in the reactions. In the course of measuring, a method developed for the characterisation of tight-binding inhibitors was used (Empie, 1982). The concentration of the product was measured as a function of reaction time. The slope of the straight line determined for the initial phase of the reaction was normalised with the slope obtained for the uninhibited enzyme reaction, and this value was multiplied with the total enzyme concentration. As a result of this we obtained the free enzyme concentration, which was plotted as a function of the total inhibitor concentration and the Ki value was determined according to the following equation: […]
(§3) where E is the free (uninhibited) enzyme concentration, and E₀ is the total enzyme concentration. The stock concentration of the inhibitors was determined by titration with bovine trypsin of known concentration. The results were calculated as the average of parallel measurements.

[2] = target: T4, human MASP-2 catalytic fragment CCP1-CCP2-SP (human, UniProt O00187 287-686, limits assumed); experiment: as above
T4 construct: domain: CCP1-CCP2-SP; also called human MASP-2cf; human MASP2cf
Experimental: as §1, §2, §3

[3] = target: T1, human MASP-1 catalytic fragment …; experiment: enzyme inhibition, Z-L-Lys-SBzl/DTNB, catalytic fragment
Experimental: as §1, §2

[4] = target: T2, human MASP-3 catalytic fragment …; experiment: as above
Experimental: as §1, §2

[5] = target: T4, human MASP-2 catalytic fragment …; experiment: ratio of Ki values, enzyme inhibition
Experimental: as §1, §2

[6] = target: T5, human MASP-2 enzyme as present in normal human serum (human, UniProt O00187 16-686); experiment: cell-based or functional assay
[7] = target: bovine trypsin (Sigma-T1426) (bovine, UniProt P00760 24-246); experiment: fluorometric residual activity, Z-Gly-Pro-Arg-AMC, tight-binding fit
Experimental: The KI values of the inhibitors on bovine trypsin were also determined. In these experiments, we used bovine trypsin (Sigma—T1426). The concentration of trypsin was determined by fluorescent active-site titration based on Jameson 1973. The measurements were done in 200 μL final assay volume of 50 mM Tris, 10 mM CaCl2, 0.005% Triton X-100 pH 8.0 buffer on 96-well black microtiter plates (Thermo Scientific Sterilin—611F96BK) using a BioTek Synergy H4 multimode microplate reader.
Constant predefined concentrations of the enzymes were mixed with serial dilutions of the inhibitors and co-incubated at room temperature until reaching equilibrium. The incubation times were 5 h in the case of the protein according to SEQ ID NO: 11, 8 h in the case of TFPI-D2 and the protein according to SEQ ID NO: 17 and 24 h in the case of the protein according to SEQ ID NO: 14. Then, 10 μM (final concentration) of Z-Gly-Pro-Arg-AMC substrate was added to the samples. The concentration of the free enzyme was determined through measuring the residual enzyme activity in a fluorometric kinetic assay at 380 nm excitation wavelength and 460 nm emission wavelength in two parallel experiments. Analyses of the data were done as described above.

[8] = target: B1; experiment: ratio of Ki values, enzyme inhibition
Experimental: as §1, §2

[9] = target: T2, human MASP-3 catalytic fragment …; experiment: enzyme inhibition, Z-L-Lys-SBzl/DTNB, catalytic fragment; approximation based on a single measurement
Experimental: as §1
A dilution sequence was prepared from the individual inhibitors, the enzyme was added to it, and it was incubated for 2 hours at room temperature. The samples were transferred on a 96-well microtiter plate (Nunc 269620). […] The concentration of the product was measured as a function of reaction time. The slope of the straight line determined for the initial phase of the reaction was normalised with the slope obtained for the uninhibited enzyme reaction, and this value was multiplied with the total enzyme concentration. […]

[10] = target: rat MASP-2 as present in rat serum (rat, UniProt Q9JJS8 20-685); experiment: cell-based or functional assay
[11] = target: T5, human MASP-2 enzyme as present in …; experiment: cell-based or functional assay; remark: listed apart in the source
[12] = target: T3, TFPI-D2, second Kunitz domain (residues …); experiment: enzyme inhibition

T4 sequence (O00187 287-686 limits assumed): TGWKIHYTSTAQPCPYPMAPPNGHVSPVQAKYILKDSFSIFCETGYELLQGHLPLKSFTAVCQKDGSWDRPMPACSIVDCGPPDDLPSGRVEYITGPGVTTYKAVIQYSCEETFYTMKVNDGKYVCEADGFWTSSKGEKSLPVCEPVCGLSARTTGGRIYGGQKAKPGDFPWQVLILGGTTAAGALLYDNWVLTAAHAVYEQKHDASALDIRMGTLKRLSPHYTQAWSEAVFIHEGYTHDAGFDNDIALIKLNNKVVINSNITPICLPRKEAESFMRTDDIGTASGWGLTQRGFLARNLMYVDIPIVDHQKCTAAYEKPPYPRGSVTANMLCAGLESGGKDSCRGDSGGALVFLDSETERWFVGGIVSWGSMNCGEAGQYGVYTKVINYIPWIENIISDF
Chain of bovine trypsin (Sigma-T1426) (P00760 24-246): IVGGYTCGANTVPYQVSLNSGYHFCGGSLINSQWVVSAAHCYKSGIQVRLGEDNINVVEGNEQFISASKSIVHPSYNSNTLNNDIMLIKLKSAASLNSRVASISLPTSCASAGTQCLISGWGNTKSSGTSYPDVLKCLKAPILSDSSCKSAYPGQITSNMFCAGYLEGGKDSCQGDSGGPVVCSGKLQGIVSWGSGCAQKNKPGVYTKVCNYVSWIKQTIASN
T5 sequence (O00187 16-686 limits assumed): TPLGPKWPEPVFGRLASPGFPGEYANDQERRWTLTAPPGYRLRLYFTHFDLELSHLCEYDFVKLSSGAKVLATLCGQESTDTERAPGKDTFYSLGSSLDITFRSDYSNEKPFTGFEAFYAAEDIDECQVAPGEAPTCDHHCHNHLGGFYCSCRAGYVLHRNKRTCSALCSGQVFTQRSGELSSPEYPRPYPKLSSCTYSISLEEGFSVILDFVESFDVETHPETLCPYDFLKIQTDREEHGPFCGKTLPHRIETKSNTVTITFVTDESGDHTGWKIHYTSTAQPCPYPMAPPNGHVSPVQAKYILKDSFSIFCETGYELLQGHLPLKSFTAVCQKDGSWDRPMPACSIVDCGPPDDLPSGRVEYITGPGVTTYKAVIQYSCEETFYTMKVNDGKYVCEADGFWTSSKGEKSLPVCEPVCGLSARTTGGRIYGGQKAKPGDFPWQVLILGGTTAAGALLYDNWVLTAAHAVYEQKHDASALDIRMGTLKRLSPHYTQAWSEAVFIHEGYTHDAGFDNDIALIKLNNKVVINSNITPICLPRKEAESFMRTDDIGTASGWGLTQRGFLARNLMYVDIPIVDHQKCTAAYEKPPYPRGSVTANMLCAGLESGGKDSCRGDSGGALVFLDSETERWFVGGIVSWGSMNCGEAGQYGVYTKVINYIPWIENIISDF

Row | Binder | Ki [1] [nM] | Ki [2] [nM] | binding result [3] | binding result [4] | fold more potent than SGMI-2 [5] [fold] | IC50 (nM), lectin pathway activity in diluted human serum (WIELISA, C5b-9) [6] [nM] | Ki [7] [nM] | fold higher binding affinity than human TFPI-D2 [8] [fold] | fold more potent than SGMI-2 [8] [fold] | fold reduction of binding affinity against the protein of SEQ ID NO: 11 [5] [fold] | Ki [9] [nM] | IC50 (nM), C3 deposition, lectin pathway in diluted rat serum on mannan [10] [nM] | IC50 (nM), C4 deposition, lectin pathway in diluted rat serum on mannan [10] [nM] | IC50 (nM), C5b-9 deposition, lectin pathway in diluted rat serum on mannan [10] [nM] | fold of the lectin pathway IC50 against SGMI-2 [11] [fold] | binding result [12]
1 | protein according to SEQ ID NO: 11 (TFPI-D2 variant with the inhibitor loop FCRAVKR) (designed binder, ends and bridges not checked; cysteine pairing not given here, Made in E. coli as a His6-S100A4 fusion and freed by TEV protease) KPDFCFLEEDPGFCRAVKRRYFYNNQTKQCERFKYGGCLGNMNNFETLEECKNICEDG | 640 | 2 | no binding | no binding | 3 | 35 | 0.094 | – | – | – | – | – | – | – | – | –
2 | protein according to SEQ ID NO: 14 (TFPI-D2 variant with the inhibitor loop PCRAVKR) (designed binder, ends and bridges not checked; cysteine pairing not given here, Made as m1) KPDFCFLEEDPGPCRAVKRRYFYNNQTKQCERFKYGGCLGNMNNFETLEECKNICEDG | 7.2 | 7.9 | no binding | – | – | 90 | 0.004 | 25 | ~3 | 4 | ~30000 | 869 | 108 | 940 | – | –
3 | protein according to SEQ ID NO: 17 (TFPI-D2 variant with the inhibitor loop VCRAVKR) (designed binder, ends and bridges not checked; cysteine pairing not given here, Made as m1) KPDFCFLEEDPGVCRAVKRRYFYNNQTKQCERFKYGGCLGNMNNFETLEECKNICEDG | 7.5 | 36.7 | no binding | no binding | – | 380 | 0.017 | 25 | ~3 | 18 | – | – | – | – | 2 | –
4 | B1 | – | – | – | – | – | – | – | – | – | – | – | – | – | – | – | binds
5 | GSGEVTCEPGTTFKDKCNTCRCGSDGKSAVCTKLWCNQ (designed binder, Comparator from WO 2012/007777) [SGMI-2 (SGCI-based MASP inhibitor 2)] | 22.7 | 8.1 | no binding | – | – | 174 | 100 | – | – | – | – | 2240 | 457 | 4000 | – | –

From patent US20200131249A1 (EVOLVERITAS KFT, published 2020)
